Molecular target: Leishmania major actin (Leishmania major) (UniProt P45520)
Test: ITC

Sequence of Leishmania major actin (Leishmania major) (P45520 2-376): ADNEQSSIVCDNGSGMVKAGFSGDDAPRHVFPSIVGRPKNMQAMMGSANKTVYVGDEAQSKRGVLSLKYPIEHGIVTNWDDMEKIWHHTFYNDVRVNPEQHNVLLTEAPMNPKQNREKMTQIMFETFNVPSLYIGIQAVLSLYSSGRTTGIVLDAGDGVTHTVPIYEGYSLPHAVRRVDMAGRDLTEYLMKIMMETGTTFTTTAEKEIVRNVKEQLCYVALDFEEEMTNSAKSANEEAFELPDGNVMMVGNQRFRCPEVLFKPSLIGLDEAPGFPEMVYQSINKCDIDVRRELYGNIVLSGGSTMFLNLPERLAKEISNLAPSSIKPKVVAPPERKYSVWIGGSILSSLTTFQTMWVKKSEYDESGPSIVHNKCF

Row | Substance | Kd
1 | LmProfilin-Y6A (natural protein) | 0.08 µM
2 | LmProfilin-K68A (natural protein) | 6 µM

Reference: doi:10.1101/2023.01.06.522972
